{"source": "paper PMC8113581", "about": "(Nature Communications, 2021)", "binders": {"B1": {"name": "P4A1 (antibody, V domains shown)", "VH": "EVQLVESGGGLIQPGGSLRLSCAASGFIVSSNYMSWVRQAPGKGLEWVSIIYSGGSTFYADSVKGRFTISRDNSKNTLYLQMNSLRVEDTAVYYCARDLQELGSLDYWGQGTLVTVSS", "VL": "DIQMTQSPSSVSASVGDRVTITCRASQGISSWLAWYQQKPGKAPKLLIYAASSLQSGVPSRFSGSGSGTDFTLTISSLQPEDFATYYCQEANSFPYTFGQGTKLEIK", "notes": "also called P4A1 (IgG1); IgG1 form P4A1"}}, "target": "T1, SARS-CoV-2 spike S1 domain (D614G) (SARS-CoV-2, Wuhan-Hu-1 background with …, UniProt A0A6H1PJZ3, strain)", "T1 construct": "also called D614G S1 variant; source: bought: Sino Biological", "assay": "SPR", "details": "both partners purified"}
{"binder": "B1", "values": [{"measurement": "binding result", "result": "binds"}]}
